Measured values reported in the supplement of paper PMC10567573.
± gives the standard deviation.

Assay: protein stability index of a GFP-peptide fusion (GPS, HEK-293T) (PSI 1-6); higher = more stable
[1] = treatment: DMSO, c terminus: a fixed tail appended
[2] = treatment: MLN4924 1 uM, 8 h, c terminus: a fixed tail appended
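Also: 24-mer peptide tiles fused after GFP, lentivirally expressed, FACS-sorted into six equal bins by GFP/DsRed ratio, decoded by Illumina sequencing, PSI is the read-weighted mean bin number.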

Sequence | protein stability index [1] | protein stability index [2] | protein stability index (treatment: DMSO, c terminus: native) | protein stability index (treatment: MLN4924 1 uM, 8 h, c terminus: native)
MRSGEPACTMDQARGLDDAAARGG [ZBED3] | 5 ± 0.23 | 5.06 ± 0.15 | – | –
MSGRSKRESRGSTRGKRESESRGS [USP39] | 4.96 ± 0.12 | 5 ± 0.46 | – | –
MSHHQEELVPKQPQKRKPQEQLLE [SLC2A12] | 5.25 ± 0.14 | 5.34 ± 0.15 | – | –
MTEEVIVIAKWDYTAQQDQELDIK [NCK2] | 2.92 ± 0.29 | 2.97 ± 0.33 | – | –
MTPAEAEMHFLENAKKLSMYGVDL [EPB41L3] | 3 ± 0.29 | 3.03 ± 0.52 | – | –
NAGQSDNRSLAEACSEGDVNAVRK [ANKRD17] | 5.56 ± 0.15 | 5.46 ± 0.15 | – | –
NAPKFQAENLDVKINENVAAGMRF [PCDHGA10] | 3.77 ± 0.61 | 3.86 ± 0.45 | – | –
NAVRSAMKSEEQKIKDARKGPLVP [KMT5A] | 4.75 ± 0.11 | 5.07 ± 0.13 | – | –
NDYICPATNQCTIDKNRRKSCQAC [ESR2] | 4.44 ± 0.21 | 4.83 ± 0.17 | – | –
NESRRQIQSLTCEVDGLRGTNEAL [PRPH] | 4.7 ± 0.29 | 5.11 ± 0.056 | – | –
NFCKHNGSKNVFSTFRTPAVLFTG [ATL3] | 2.21 ± 0.32 | 2.33 ± 0.13 | – | –
NGDITSFLLSVYAPGSSVEYQCQN [CFHR2] | 2.38 ± 0.58 | 2.09 ± 0.24 | – | –
NGKEFNNWFNVTGSDKCVFLKNTE [CD69] | 3.2 ± 0.31 | 3.08 ± 0.42 | – | –
NHQKDLFRRTDGRCLIWGRKPKVI [DHCR7] | 2.66 ± 0.27 | 2.74 ± 0.3 | – | –
NHSLARHADILAAVETRLSLLNMT [FBXO28] | 2.53 ± 0.13 | 2.71 ± 0.19 | – | –
NIKIWLSLRSYLKRRGPQRSVDVV [PHTF1] | 2.43 ± 0.35 | 2.54 ± 0.36 | – | –
NILPNTQKVTCFYQPAPYFAAEAR [TENT5D] | 2.49 ± 0.32 | 2.59 ± 0.23 | – | –
NITRIYNIGKSHQGLKLYAVEISD [CPXM2] | 2.34 ± 0.43 | 2.31 ± 0.14 | – | –
NKCSVYPLTFDKNENMAAKKKSVA [GNB5] | 4.09 ± 0.16 | 4.39 ± 0.48 | – | –
NKTDVVLILELVSGGELFDFLAEK [DAPK3] | 2.55 ± 0.58 | 2.68 ± 0.96 | – | –
NKTNKNSVSSCDQEHQSALEEAKQ [SMOC2] | 5.13 ± 0.43 | 5.57 ± 0.3 | – | –
NLKTLDSKPGVYTSYKPYLNRDEE [DENND6A] | 3.6 ± 0.56 | 3.63 ± 0.38 | – | –

Sequence | protein stability index [1] | protein stability index [2] | protein stability index (treatment: DMSO, c terminus: native) | protein stability index (treatment: MLN4924 1 uM, 8 h, c terminus: native)
NNEAFMNQEITKAFHVRRTNRVKE [RHOBTB2] | 4.44 ± 0.25 | 4.48 ± 0.21 | – | –
NPALQLILTRTDKTLNKKLGQNK [TOR1AIP2] | – | – | 3.87 ± 0.16 | 3.89 ± 0.12
NQIMPKTGFLIIILAIIAKEGDCA [MAGEA6] | 2.98 ± 0.45 | 2.47 ± 0.61 | – | –
NQLLVADVKRLGKQNARFLTSMRR [STX11] | 2.97 ± 0.079 | 3.08 ± 0.41 | – | –
NQYATCRLCGRQVSRGPGVNVGTT [ZBED2] | 2.39 ± 0.27 | 2.58 ± 0.46 | – | –
NSDLNNLLFCCQCVDVVFYNPDLK [RHOBTB3] | 2.28 ± 0.99 | 2.59 ± 0.6 | – | –
NSKPQDLTDAYGPPSNFLEIDIFN [SNX12] | 3.63 ± 0.18 | 3.83 ± 0.24 | – | –
NVEAQLSEIRCDLERQNQEYQVLL [KRT36] | 3.58 ± 0.29 | 3.53 ± 0.21 | – | –
NWQPAVPLMHMLHLSGALDFPRQS [SPATS1] | 2.07 ± 0.39 | 2.15 ± 0.52 | – | –
NYGADTNTRNYEGQTPLAVSISIS [ASB7] | 2.65 ± 0.45 | 2.77 ± 0.48 | – | –
PAEESKPAPSPHEEPCSPGLLQDQ [CBY2] | 5.33 ± 0.27 | 5.14 ± 0.31 | – | –
PAGCMYIHGGVVNIHENKRTGSLF [KLHDC10] | 2.52 ± 0.18 | 2.45 ± 0.26 | – | –
PAHLYFQAHGSEGLTFQGLLPLTE [PLEKHN1] | 2.85 ± 0.045 | 2.9 ± 0.083 | – | –
PALDWDSVHVPGPHAMTIQELVDY [PTPN9] | 4.08 ± 0.2 | 4.31 ± 0.15 | – | –
PAQVPREVLKVQTHLENPTRYHLQ [TFE3] | 3.75 ± 0.43 | 3.82 ± 0.093 | – | –
PARDYSQYYRTIEELQNKILTATV [KRT17] | 2.28 ± 0.2 | 2.34 ± 0.21 | – | –
PCKTRDDEPVCGRPLGIRAGPNGT [APMAP] | 3.9 ± 0.36 | 4.14 ± 0.093 | – | –
PDDPEHLAARRQWRDECLMRLAKL [CRYL1] | 3.66 ± 0.6 | 3.83 ± 0.36 | – | –
PEAISPDLVKKIRDFHRKILTLPE [TRIM15] | 2.51 ± 0.17 | 2.68 ± 0.37 | – | –
PEEPLNGESYESCCPTSREAAVEA [FEM1A] | 5.37 ± 0.18 | 5.28 ± 0.31 | – | –
PEGLDSDFLAVLSDYPSPDISPPI [SLA] | 4.08 ± 0.11 | 4.14 ± 0.097 | – | –
PELMEHTEAESEQEGSSGMELSWG [TEX19] | 5.4 ± 0.32 | 5.32 ± 0.35 | – | –

Sequence | protein stability index [1] | protein stability index [2] | protein stability index (treatment: DMSO, c terminus: native) | protein stability index (treatment: MLN4924 1 uM, 8 h, c terminus: native)
PELSYRVCVGSDVTSIHKYMVRRY [MYORG] | 2.31 ± 0.14 | 2.27 ± 0.24 | – | –
PENQEYFEKHRWPPVWYLKEEDHY [RHOBTB2] | 3.42 ± 0.23 | 3.57 ± 0.41 | – | –
PETKQRKLSPLRLSVSNNQEPDFI [KMT2E] | 4.16 ± 0.24 | 4.38 ± 0.32 | – | –
PFGILSPNVLCSMSGKSPVESSLN [FBXO34] | 2.88 ± 0.33 | 2.64 ± 0.37 | – | –
PFIVTLEGNALQGPILQKDYVQLE [ZNF449] | 2.46 ± 0.18 | 2.59 ± 0.31 | – | –
PKKDLEDGEVPQHAGKKGKLSEHL [BRD3] | 5.18 ± 0.26 | 5.3 ± 0.26 | – | –
PKKSAPSAVARSNSWMGSQGPMSQ [RBMY1A1] | 4.08 ± 0.13 | 4.28 ± 0.2 | – | –
PKLFCPKNRSFDIDAIYSVIDDAK [PLD5] | 3 ± 0.62 | 2.89 ± 0.27 | – | –
PKRRWLFWNSPSSPSSSAASSSSP [RHOBTB2] | 3.57 ± 0.2 | 3.75 ± 0.18 | – | –
PLQNQKILKRTGQRYEHGRTLKSY [ZNF649] | 2.89 ± 0.45 | 3.53 ± 0.41 | – | –
PLSLYGQLLWREFFYTAATNNPRF [CRY1] | 2.79 ± 0.46 | 2.5 ± 0.72 | – | –
PNLSPHAPWNYHYHCPGSPDHQVP [TRAF3IP2] | 3.29 ± 0.34 | 3.54 ± 0.32 | – | –
PPPDVTQLTPPSHDLTDNIFPRLV [ANKRD17] | 4.04 ± 0.34 | 4.06 ± 0.16 | – | –
PPSNFLEIDIFNPQTVGVGRARFT [SNX12] | 3.27 ± 0.34 | 3.27 ± 0.21 | – | –
PQPNYADTLISQESCEKNDPLSLL [PCDHGA10] | 4.83 ± 0.11 | 4.85 ± 0.17 | – | –
PQSPDFLDITNPKAVLENALRNFA [UFD1] | 2.86 ± 0.35 | 2.55 ± 0.57 | – | –
PQYEFKEAAGSFTSSLAQPGAYYP [IRX6] | 3.37 ± 0.19 | 3.36 ± 0.24 | – | –
PRYITDVIDAEPFIRCSLQCRDLV [KLHL12] | 2.25 ± 0.57 | 2.26 ± 0.66 | – | –
PSAALTTMQLFSKQNPSRQEVTKL [FBXO28] | 4.16 ± 0.37 | 4.37 ± 0.23 | – | –
PSATRAKPGPQDTVERPFYDLWAS [NOP53] | 3.08 ± 0.37 | 3.24 ± 0.37 | – | –
PSCQETRDYAPPSRGYAYRDNGHS [RBMY1A1] | 4.18 ± 0.18 | 4.21 ± 0.21 | – | –
